We go through two molecules from patent US20030119023, “Nucleic acid binding polypeptides characterized by flexible linkers connected nucleic acid binding modules” (published 2003).

The target in one series is GAC-F4-ZIF (artificial). Put plainly: EMSA; 11 bp gap spanned without significant loss. To be noted: label: 32P.
A further series concerns the target 3x2F pep11-9 (artificial). Put plainly: in vitro fluorescence ELISA, values in figure only. Particulars: label: biotin. How it is done: (§1) Incubations are performed at room temperature for 40 minutes. Black streptavidin-coated wells are blocked with 4% marvel for 1 hour. Binding reactions are added to the streptavidin-coated wells and incubated for a further 40 minutes at room temperature. Wells are washed 5 times in 100 μl wash buffer (1×PBS (pH 7.0), […] ZnCl₂, 0.01 mg/ml BSA, and 0.5% Tween 20), and finally 50 μl QuantaBlu peroxidase substrate solution (Pierce) is added to detect bound HA-tagged zinc finger peptide. ELISA signals are read in a SPECTRAmax GeminiXS spectrophotometer (Molecular Devices) and analysed using SOFTmax Pro 3.1.2 (Molecular Devices).
(§2) To compare the specificity of the 2x3F pep11-9 and 3x2F pep11-9 peptides, samples from the same translation reaction are assayed against each of the binding sites above. The ELISA signals obtained from each assay are then normalised relative to the maximum signal obtained for that peptide. (In this way the absolute amount of either peptide produced by the in vitro transcription/translation system is insignificant).
For orientation: ELISA stands for enzyme-linked immunosorbent assay.

For a further series, the target named is 2x3F pep11-9 (artificial). In words: in vitro fluorescence ELISA, values in figure only. Particulars: label: biotin. As for the experimental part: as §1, §2
Sequence of 2x3F pep11-9 (artificial) (chain, as listed by the source): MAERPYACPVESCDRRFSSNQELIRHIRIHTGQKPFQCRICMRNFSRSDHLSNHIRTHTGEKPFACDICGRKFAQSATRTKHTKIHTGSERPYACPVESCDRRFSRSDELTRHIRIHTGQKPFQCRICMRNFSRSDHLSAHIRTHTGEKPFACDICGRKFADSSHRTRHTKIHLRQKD

Sequence of 3x2F pep11-9 (artificial) (chain, as listed by the source): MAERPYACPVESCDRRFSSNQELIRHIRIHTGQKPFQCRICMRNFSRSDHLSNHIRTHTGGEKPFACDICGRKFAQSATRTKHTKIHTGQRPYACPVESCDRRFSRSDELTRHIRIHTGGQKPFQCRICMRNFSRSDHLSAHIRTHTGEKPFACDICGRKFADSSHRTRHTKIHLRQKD
Sequence of GAC-F4-ZIF (artificial) (chain, as listed by the source): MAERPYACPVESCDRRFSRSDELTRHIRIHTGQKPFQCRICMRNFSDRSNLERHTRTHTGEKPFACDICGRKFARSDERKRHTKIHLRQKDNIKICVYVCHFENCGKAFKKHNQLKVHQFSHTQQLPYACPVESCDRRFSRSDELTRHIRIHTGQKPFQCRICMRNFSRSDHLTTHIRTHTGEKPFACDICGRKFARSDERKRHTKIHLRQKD

B1: bsF2 (dsDNA)
DNA 1: GCGTGGGCGGTTAGTACCTGGCGGACGCG
DNA 2: CGCGTCCGCCAGGTACTAACCGCCCACGC
On to B1, for which the binding result in the series with GAC-F4-ZIF is recorded as “binds”.

B2: 11-9 (dsDNA)
DNA 1: GGCCAGGCGGCAGGGGTT
DNA 2: AACCCCTGCCGCCTGGCC
Consider B2, for which the binding result with 3x2F pep11-9 and with 2x3F pep11-9 was “binds” in each case.
